According to IntAct's records for PubMed 29892012:

B1: Small glutamine-rich tetratricopeptide repeat-containing protein beta (Homo sapiens), Q96EQ0 (parent)
chain: MSSIKHLVYAVIRFLREQSQMDTYTSDEQESLEVAIQCLETVFKISPEDTHLAVSQPLTEMFTSSFCKNDVLPLSNSVPEDVGKADQLKDEGNNHMKEENYAAAVDCYTQAIELDPNNAVYYCNRAAAQSKLGHYTDAIKDCEKAIAIDSKYSKAYGRMGLALTALNKFEEAVTSYQKALDLDPENDSYKSNLKIAEQKLREVSSPTGTGLSFDMASLINNPAFISMAASLMQNPQVQQLMSGMMTNAIGGPAAGVGGLTDLSSLIQAGQQFAQQIQQQNPELIEQLRNHIRSRSFSSSAEEHS
partner: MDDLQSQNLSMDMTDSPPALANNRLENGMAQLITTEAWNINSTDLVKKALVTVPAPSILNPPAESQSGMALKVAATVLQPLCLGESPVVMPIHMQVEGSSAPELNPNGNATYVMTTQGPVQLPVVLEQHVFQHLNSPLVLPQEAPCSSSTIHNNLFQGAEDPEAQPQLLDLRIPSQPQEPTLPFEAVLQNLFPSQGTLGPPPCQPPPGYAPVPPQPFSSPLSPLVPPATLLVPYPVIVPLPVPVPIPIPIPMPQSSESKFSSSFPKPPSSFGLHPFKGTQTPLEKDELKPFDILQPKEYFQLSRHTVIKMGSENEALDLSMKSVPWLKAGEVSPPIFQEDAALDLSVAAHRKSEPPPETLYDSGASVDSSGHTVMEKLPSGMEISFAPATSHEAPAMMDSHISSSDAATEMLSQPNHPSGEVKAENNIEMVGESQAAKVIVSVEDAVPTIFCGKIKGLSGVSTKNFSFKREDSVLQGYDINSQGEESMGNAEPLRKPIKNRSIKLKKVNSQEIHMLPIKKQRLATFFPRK
B2: Centrosomal protein POC5 (Homo sapiens), Q8NA72 (parent)
chain: MSSDEEKYSLPVVQNDSSRGSSVSSNLQEEYEELLHYAIVTPNIEPCASQSSHPKGELVPDVRISTIHDILHSQGNNSEVRETAIEVGKGCDFHISSHSKTDESSPVLSPRKPSHPVMDFFSSHLLADSSSPATNSSHTDAHEILVSDFLVSDENLQKMENVLDLWSSGLKTNIISELSKWRLNFIDWHRMEMRKEKEKHAAHLKQLCNQINELKELQKTFEISIGRKDEVISSLSHAIGKQKEKIELMRTFFHWRIGHVRARQDVYEGKLADQYYQRTLLKKVWKVWRSVVQKQWKDVVERACQARAEEVCIQISNDYEAKVAMLSGALENAKAEIQRMQHEKEHFEDSMKKAFMRGVCALNLEAMTIFQNRNDAGIDSTNNKKEEYGPGVQGKEHSAHLDPSAPPMPLPVTSPLLPSPPAAVGGASATAVPSAASMTSTRAASASSVHVPVSALGAGSAATAASEEMYVPRVVTSAQQKAGRTITARITGRCDFASKNRISSSLAIMGVSPPMSSVVVEKHHPVTVQTIPQATAAKYPRTIHPESSTSASRSLGTRSAHTQSLTSVHSIKVVD
partner: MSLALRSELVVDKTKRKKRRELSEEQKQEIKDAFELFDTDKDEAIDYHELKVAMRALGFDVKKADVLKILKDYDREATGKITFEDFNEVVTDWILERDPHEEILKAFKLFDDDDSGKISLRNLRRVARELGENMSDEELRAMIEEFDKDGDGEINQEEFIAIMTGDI
B3: Ceramide transfer protein (Homo sapiens), Q9Y5P4 (parent)
chain: MSDNQSWNSSGSEEDPETESGPPVERCGVLSKWTNYIHGWQDRWVVLKNNALSYYKSEDETEYGCRGSICLSKAVITPHDFDECRFDISVNDSVWYLRAQDPDHRQQWIDAIEQHKTESGYGSESSLRRHGSMVSLVSGASGYSATSTSSFKKGHSLREKLAEMETFRDILCRQVDTLQKYFDACADAVSKDELQRDKVVEDDEDDFPTTRSDGDFLHSTNGNKEKLFPHVTPKGINGIDFKGEAITFKATTAGILATLSHCIELMVKREDSWQKRLDKETEKKRRTEEAYKNAMTELKKKSHFGGPDYEEGPNSLINEEEFFDAVEAALDRQDKIEEQSQSEKVRLHWPTSLPSGDAFSSVGTHRFVQKPYSRSSSMSSIDLVSASDDVHRFSSQVEEMVQNHMTYSLQDVGGDANWQLVVEEGEMKVYRREVEENGIVLDPLKATHAVKGVTGHEVCNYFWNVDVRNDWETTIENFHVVETLADNAIIIYQTHKRVWPASQRDVLYLSVIRKIPALTENDPETWIVCNFSVDHDSAPLNNRCVRAKINVAMICQTLVSPPEGNQEISRDNILCKITYVANVNPGGWAPASVLRAVAKREYPKFLKRFTSYVQEKTAGKPILF
B4: Centrosomal protein POC5 (Homo sapiens), Q8NA72 (parent)
chain: B2 chain
B5: Vasculin (Homo sapiens), Q86WP2 (parent)
chain: MAQHDFAPAWLNFPTPPSSTKSSLNFEKHSENFAWTENRYDVNRRRHNSSDGFDSAIGRPNGGNFGRKEKNGWRTHGRNGTENINHRGGYHGGSSRSRSSIFHAGKSQGLHENNIPDNETGRKEDKRERKQFEAEDFPSLNPEYEREPNHNKSLAAGVWEYPPNPKSRAPRMLVIKKGNTKDLQLSGFPVVGNLPSQPVKNGTGPSVYKGLVPKPAAPPTKPTQWKSQTKENKVGTSFPHESTFGVGNFNAFKSTAKNFSPSTNSVKECNRSNSSSPVDKLNQQPRLTKLTRMRTDKKSEFLKALKRDRVEEEHEDESRAGSEKDDDSFNLHNSNSTHQERDINRNFDENEIPQENGNASVISQQIIRSSTFPQTDVLSSSLEAEHRLLKEMGWQEDSENDETCAPLTEDEMREFQVISEQLQKNGLRKNGILKNGLICDFKFGPWKNSTFKPTTENDDTETSSSDTSDDDDV
partner: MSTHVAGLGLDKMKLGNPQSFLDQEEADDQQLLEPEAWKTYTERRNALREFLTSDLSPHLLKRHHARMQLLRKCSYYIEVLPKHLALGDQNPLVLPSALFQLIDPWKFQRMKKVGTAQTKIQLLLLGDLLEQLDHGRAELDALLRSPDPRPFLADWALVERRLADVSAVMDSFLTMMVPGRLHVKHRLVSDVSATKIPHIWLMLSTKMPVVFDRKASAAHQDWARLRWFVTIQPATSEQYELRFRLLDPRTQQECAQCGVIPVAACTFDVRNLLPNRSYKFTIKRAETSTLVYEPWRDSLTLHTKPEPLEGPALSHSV

Variants of: B1
Settings: with rai2_human RAI2, Q9Y5P3

effect of a mutation on the interaction	Variant
with no effect	MSSIKHLVYAVIRFLREQSQMDTYTSDEQESLEVAIQCLETVFKISPEDTHLAVSQPLTEMFTSSFCKNDVLPLSNSVPEDVGKADQLKDEGNNHMKEENYAAAVDCYTQAIELDPNNAVYYCNRAAAQSKLGHYTDAIKDCEKAIAIDSKYSKAYGRMGLALTALNKFEEAVTSYQKALDLDPENDSYKSNLKIAEQKLREVSSPTGTGLSFDMASLINNPAFISMAASLMQNPQVQQLMSGMMTNAIGGPAAGVGGLTDLSSLIQAGQQFAQQIQQQNPELIEQLRNHIWSRSFSSSAEEHS [R292W]

Variants of: B2
Settings: with cetn3_human CETN3, O15182

effect of a mutation on the interaction	Variant
with no effect	MSSDEEKYSLPVVQNDSSRGSSVSSNLQEEYEELLHYAIVTPNIEPCASQSSHPKGELVPDVRISTIHDILHSQGNNSEVRETAIEVGKGCDFHISSHSKTDESSPVLSPRKPSHPVMDFFSSHLLADSSSPATNSSHTDAHEILVSDFLVSDENLQKMENVLDLWSSGLKTNIISELSKWRLNFIDWHRMEMRKEKEKHAAHLKQLCNQINELKELQKTFEISIGRKDEVISSLSHAIGKQKEKIELMRTFFHWRIGHVRARQDVYEGKLADQYYQRTLLKKVWKVWRSVVQKQWKDVVERACQARAEEVCIQISNDYEAKVAMLSGALENAKAEIQRMQHEKEHFEDSMKKAFMRGVCALNLEAMTIFQNRNDAGIDSTNNKKEEYGPGVQGKEHSAHLDPSAPPMPLPVTSPLLPSPPAAVGGASATAVPSAASMTSTRAASASSVHVPVSALGAGSAATAASEETYVPRVVTSAQQKAGRTITARITGRCDFASKNRISSSLAIMGVSPPMSSVVVEKHHPVTVQTIPQATAAKYPRTIHPESSTSASRSLGTRSAHTQSLTSVHSIKVVD [M469T]

Variants of: B3
Settings: with ar6p1_human ARL6IP1, Q15041
Chain of ar6p1_human ARL6IP1, Q15041 (Q15041 whole entry): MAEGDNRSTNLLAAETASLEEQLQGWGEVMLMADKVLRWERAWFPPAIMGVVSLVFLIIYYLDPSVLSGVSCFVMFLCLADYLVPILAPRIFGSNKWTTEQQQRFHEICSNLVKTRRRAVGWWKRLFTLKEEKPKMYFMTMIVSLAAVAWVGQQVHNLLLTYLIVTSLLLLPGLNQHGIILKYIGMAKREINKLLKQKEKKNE

effect of a mutation on the interaction	Variant
with no effect	T166A

Variants of: B3
Settings: with rtn3_human RTN3, O95197
Chain of rtn3_human RTN3, O95197 (O95197 whole entry): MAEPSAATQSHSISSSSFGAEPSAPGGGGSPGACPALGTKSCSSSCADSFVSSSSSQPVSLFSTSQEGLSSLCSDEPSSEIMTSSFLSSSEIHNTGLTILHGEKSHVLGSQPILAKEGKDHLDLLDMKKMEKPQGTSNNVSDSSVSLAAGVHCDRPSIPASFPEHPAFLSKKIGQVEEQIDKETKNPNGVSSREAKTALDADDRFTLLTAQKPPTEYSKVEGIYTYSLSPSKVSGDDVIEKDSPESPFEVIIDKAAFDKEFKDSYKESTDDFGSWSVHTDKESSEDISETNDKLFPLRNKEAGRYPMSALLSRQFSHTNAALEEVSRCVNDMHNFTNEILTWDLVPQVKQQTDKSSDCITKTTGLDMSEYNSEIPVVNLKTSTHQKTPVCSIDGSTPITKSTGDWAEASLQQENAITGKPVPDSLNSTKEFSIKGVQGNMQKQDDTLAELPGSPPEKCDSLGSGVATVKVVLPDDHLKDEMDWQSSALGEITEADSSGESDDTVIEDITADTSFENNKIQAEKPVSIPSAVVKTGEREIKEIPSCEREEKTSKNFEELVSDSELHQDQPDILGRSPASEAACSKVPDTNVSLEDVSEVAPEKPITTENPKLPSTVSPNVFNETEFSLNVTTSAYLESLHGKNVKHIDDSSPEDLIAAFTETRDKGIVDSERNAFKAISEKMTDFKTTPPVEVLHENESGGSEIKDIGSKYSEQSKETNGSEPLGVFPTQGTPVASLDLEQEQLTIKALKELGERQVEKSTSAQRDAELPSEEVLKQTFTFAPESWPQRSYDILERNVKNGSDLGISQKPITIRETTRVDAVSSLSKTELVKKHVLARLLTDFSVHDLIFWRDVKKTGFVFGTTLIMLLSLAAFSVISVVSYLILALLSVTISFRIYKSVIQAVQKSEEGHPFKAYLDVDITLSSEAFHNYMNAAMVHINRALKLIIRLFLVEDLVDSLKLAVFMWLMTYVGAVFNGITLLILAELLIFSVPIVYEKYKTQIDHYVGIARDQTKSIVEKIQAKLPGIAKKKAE

effect of a mutation on the interaction	Variant
with no effect	T166A

Variants of: B3
Settings: with rtn4_human RTN4, Q9NQC3
Chain of rtn4_human RTN4, Q9NQC3 (Q9NQC3 whole entry): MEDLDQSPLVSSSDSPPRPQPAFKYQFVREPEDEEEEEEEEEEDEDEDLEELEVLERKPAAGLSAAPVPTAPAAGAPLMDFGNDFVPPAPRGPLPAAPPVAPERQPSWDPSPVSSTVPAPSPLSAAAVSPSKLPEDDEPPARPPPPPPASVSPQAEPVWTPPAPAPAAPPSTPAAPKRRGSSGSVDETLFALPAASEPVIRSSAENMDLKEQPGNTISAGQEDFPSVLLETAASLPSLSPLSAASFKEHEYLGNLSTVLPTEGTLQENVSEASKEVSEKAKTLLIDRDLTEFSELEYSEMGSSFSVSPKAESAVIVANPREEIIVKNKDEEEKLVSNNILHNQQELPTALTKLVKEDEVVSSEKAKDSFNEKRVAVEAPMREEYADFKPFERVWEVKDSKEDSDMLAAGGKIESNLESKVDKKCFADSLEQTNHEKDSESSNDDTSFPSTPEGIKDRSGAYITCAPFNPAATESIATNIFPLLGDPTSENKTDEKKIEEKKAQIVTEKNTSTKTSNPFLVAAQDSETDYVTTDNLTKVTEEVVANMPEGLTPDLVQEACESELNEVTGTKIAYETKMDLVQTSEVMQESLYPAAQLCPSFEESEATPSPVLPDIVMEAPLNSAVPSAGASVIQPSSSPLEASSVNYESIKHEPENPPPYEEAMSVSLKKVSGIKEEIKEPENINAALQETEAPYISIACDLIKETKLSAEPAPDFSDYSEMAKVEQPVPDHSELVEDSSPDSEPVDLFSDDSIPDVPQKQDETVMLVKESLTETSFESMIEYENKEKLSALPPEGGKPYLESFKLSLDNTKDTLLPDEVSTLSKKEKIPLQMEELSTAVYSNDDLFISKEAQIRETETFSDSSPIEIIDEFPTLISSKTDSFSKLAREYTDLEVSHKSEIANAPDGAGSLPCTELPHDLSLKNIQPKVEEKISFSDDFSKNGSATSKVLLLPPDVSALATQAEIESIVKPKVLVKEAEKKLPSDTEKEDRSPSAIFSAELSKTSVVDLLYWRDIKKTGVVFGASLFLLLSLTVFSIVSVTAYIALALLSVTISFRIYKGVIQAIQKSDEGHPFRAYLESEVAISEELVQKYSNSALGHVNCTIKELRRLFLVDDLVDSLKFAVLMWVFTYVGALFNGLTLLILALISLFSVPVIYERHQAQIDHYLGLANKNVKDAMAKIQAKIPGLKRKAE

effect of a mutation on the interaction	Variant
with no effect	T166A

Variants of: B4
Settings: with cetn1_human CETN1, Q12798
Chain of cetn1_human CETN1, Q12798 (Q12798 whole entry): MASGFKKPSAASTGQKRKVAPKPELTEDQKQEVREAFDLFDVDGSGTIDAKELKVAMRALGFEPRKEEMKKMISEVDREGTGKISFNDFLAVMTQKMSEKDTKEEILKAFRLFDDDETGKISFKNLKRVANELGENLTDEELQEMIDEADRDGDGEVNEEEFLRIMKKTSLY

effect of a mutation on the interaction	Variant
with no effect	MSSDEEKYSLPVVQNDSSRGSSVSSNLQEEYEELLHYAIVTPNIEPCASQSSHPKGELVPDVRISTIHDILHSQGNNSEVRETAIEVGKGCDFHISSHSKTDESSPVLSPRKPSHPVMDFFSSHLLADSSSPATNSSHTDAHEILVSDFLVSDENLQKMENVLDLWSSGLKTNIISELSKWRLNFIDWHRMEMRKEKEKHAAHLKQLCNQINELKELQKTFEISIGRKDEVISSLSHAIGKQKEKIELMRTFFHWRIGHVRARQDVYEGKLADQYYQRTLLKKVWKVWRSVVQKQWKDVVERACQARAEEVCIQISNDYEAKVAMLSGALENAKAEIQRMQHEKEHFEDSMKKAFMRGVCALNLEAMTIFQNRNDAGIDSTNNKKEEYGPGVQGKEHSAHLDPSAPPMPLPVTSPLLPSPPAAVGGASATAVPSAASMTSTRAASASSVHVPVSALGAGSAATAASEETYVPRVVTSAQQKAGRTITARITGRCDFASKNRISSSLAIMGVSPPMSSVVVEKHHPVTVQTIPQATAAKYPRTIHPESSTSASRSLGTRSAHTQSLTSVHSIKVVD [M469T]

Variants of: B4
Settings: with cetn2_human CETN2, P41208
Chain of cetn2_human CETN2, P41208 (P41208 whole entry): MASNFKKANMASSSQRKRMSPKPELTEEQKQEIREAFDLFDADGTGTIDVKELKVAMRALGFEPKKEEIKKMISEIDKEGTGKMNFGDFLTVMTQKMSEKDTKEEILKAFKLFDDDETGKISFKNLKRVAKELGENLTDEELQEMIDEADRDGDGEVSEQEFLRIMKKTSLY

effect of a mutation on the interaction	Variant
with no effect	MSSDEEKYSLPVVQNDSSRGSSVSSNLQEEYEELLHYAIVTPNIEPCASQSSHPKGELVPDVRISTIHDILHSQGNNSEVRETAIEVGKGCDFHISSHSKTDESSPVLSPRKPSHPVMDFFSSHLLADSSSPATNSSHTDAHEILVSDFLVSDENLQKMENVLDLWSSGLKTNIISELSKWRLNFIDWHRMEMRKEKEKHAAHLKQLCNQINELKELQKTFEISIGRKDEVISSLSHAIGKQKEKIELMRTFFHWRIGHVRARQDVYEGKLADQYYQRTLLKKVWKVWRSVVQKQWKDVVERACQARAEEVCIQISNDYEAKVAMLSGALENAKAEIQRMQHEKEHFEDSMKKAFMRGVCALNLEAMTIFQNRNDAGIDSTNNKKEEYGPGVQGKEHSAHLDPSAPPMPLPVTSPLLPSPPAAVGGASATAVPSAASMTSTRAASASSVHVPVSALGAGSAATAASEETYVPRVVTSAQQKAGRTITARITGRCDFASKNRISSSLAIMGVSPPMSSVVVEKHHPVTVQTIPQATAAKYPRTIHPESSTSASRSLGTRSAHTQSLTSVHSIKVVD [M469T]

Variants of: B5
Settings: with fnd11_human FNDC11, Q9BVV2

effect of a mutation on the interaction	Variant
with no effect	MAQHDFAPAWLNFPTPPSSTKSSLNFEKHSENFAWTENRYDVNRRRHNSSDGFDSAIGRPNGGNFGRKEKNGWRTHGRNGTENINHRGGYHGGSSRSRSSIFHAGKSQGLHENNIPDNETGRKEDKRERKQFEAEDFPSLNPEYEREPNHNKSLAAGVWEYPPNPKSRAPRMLVIKKGNTKDLQLSGFPVVGNLPSQPVKNGTGPSVYKGLVPKPAAPPTKPTQWKSQTKENKVGTSFPHESTFGVGNFNAFKSTAKNFSPSTNSVKECNRSNSSSPVDKLNQQPRLTKLTQMRTDKKSEFLKALKRDRVEEEHEDESRAGSEKDDDSFNLHNSNSTHQERDINRNFDENEIPQENGNASVISQQIIRSSTFPQTDVLSSSLEAEHRLLKEMGWQEDSENDETCAPLTEDEMREFQVISEQLQKNGLRKNGILKNGLICDFKFGPWKNSTFKPTTENDDTETSSSDTSDDDDV [R292Q]
